{"source": "IntAct's records for PubMed 33758649", "parents": {"B1": {"name": "Protein PALS1 (Homo sapiens), Q8N3R9 (parent)", "chain": "MTTSHMNGHVTEESDSEVKNVDLASPEEHQKHREMAVDCPGDLGTRMMPIRRSAQLERIRQQQEDMRRRREEEGKKQELDLNSSMRLKKLAQIPPKTGIDNPMFDTEEGIVLESPHYAVKILEIEDLFSSLKHIQHTLVDSQSQEDISLLLQLVQNKDFQNAFKIHNAITVHMNKASPPFPLISNAQDLAQEVQTVLKPVHHKEGQELTALLNTPHIQALLLAHDKVAEQEMQLEPITDERVYESIGQYGGETVKIVRIEKARDIPLGATVRNEMDSVIISRIVKGGAAEKSGLLHEGDEVLEINGIEIRGKDVNEVFDLLSDMHGTLTFVLIPSQQIKPPPAKETVIHVKAHFDYDPSDDPYVPCRELGLSFQKGDILHVISQEDPNWWQAYREGDEDNQPLAGLVPGKSFQQQREAMKQTIEEDKEPEKSGKLWCAKKNKKKRKKVLYNANKNDDYDNEEILTYEEMSLYHQPANRKRPIILIGPQNCGQNELRQRLMNKEKDRFASAVPHTTRSRRDQEVAGRDYHFVSRQAFEADIAAGKFIEHGEFEKNLYGTSIDSVRQVINSGKICLLSLRTQSLKTLRNSDLKPYIIFIAPPSQERLRALLAKEGKNPKPEELREIIEKTREMEQNNGHYFDTAIVNSDLDKAYQELLRLINKLDTEPQWVPSTWLR"}}, "data": [{"variants_of": "B1", "details": "with vemp_sars E", "values": [{"variant": "F318W", "effect of a mutation on the interaction": "increasing interaction strength"}]}]}
